This passage reports protein production results from a protein production outcome set (Wang et al. 2014).

The nature of this data set: label from the status in PepcDB records.
Turning to “MQEIQRFNKVLKSCVLFGDIILLNSLLWGFELVLGSRFYSGNLTSLYQGMVLLSLCYLVCNIQSGVILHHPVVRPEQIMIRVLRNMVPFILFSICFLSLFHFEFFRSRLFGLFYVALLIILICYRLAFRYFLELYREKGGNVRMVVLVGSHENMQELYHSMTDDPTSGYRVMGYFEDSPSDYYPEEVAYLGQPKEAIEYLERNSGKIAQLYCSLPSVRSAEIVPIINYCENHLVRFFSVPNVRNYLKRRMYFDLLGNVPVLSIRREPLELRENRVLKRFFDIIFSLIFLCTIFPFVYIIIGIAIKISSPGPIFFKQKRSGEDGREFWCYKFRSMRVNAQCDVLQATANDPRKTRIGEFIRKTSIDELPQFINVLMGDMSVVGPRPHMLKHTEEYAQVINKFMVRHFVKPGITGWAQVTGYRGETKELWQMEGRVSRDIWYIEHWTFMLDLYIIYKTVYNAIHGEKEAY”, the protein production result is “failed”.
Then “MQEISAYTLIKEKLQAIPNLRHKGILFEKISKQFLQEHDSANEYESIDLWYDWKLRGNERDKGIDIVITTFKQRIHRCAMQIPSK”, with “failed”; and “MQFGVTKESQCHYLTDQEERLVVALPNDLENLNADAYQQLMQYGFRRSHNDVYRPHCRLCSACQSLRVVVPEFRFSKNQKRILKKNDDLTLQIKQQPEAEYSQLFSQFIEQRHADGEMYPPDPDKFWKWIDCDWLTPELLEWRNASNELMIVSVVDRTVDAMSAVYTFFHPDEEKRSPGTFAVLEMIRLAQEREVARLYLGYQIDDCKKMNYKTRFAPYERLVGNHWKKELKSHTLKAQNKD”, with “failed”; and “MQFPSIEDLRARNTMKWTRYGQGVLPLWVAESDFSTCPAVLQAITDAVQREAFGYQPDGSLLSQATAEFYADRYGYQARPEWIFPIPDVVRGLYIAIDHFTPAQSKVIVPTPAYPPFFHLLSATQREGIFIDATGGINLHDVEKGFQAGARSILLCNPYNPLGMVFAPEWLNELCDLAHRYDARVLVDEIHAPLVFDGQHTVAAGVSDTAASVCITITAPSKAWNIAGLKCAQIIFSNPSDAEHWQQLSPVIKDGASTLGLIAAEAAYRYGTDFLNQEVAYLKNNHDFLLHEIPKRIPGAKITPMQATYLMWIDFRDTTIEGSPSEFFIEKAKVAMNDGAWFGEDGTGFCRLNFATSREVLEEAIDRMAKAVSHHT”, with “not failed”.
To “MQFYNRQKELKLMELLDQGKPSFFVITGKRRVGKTELIKQFTRNRKALYLFVDSNKSINILMDEFDRLLKEKLDLPDYIKVDEPENFLKFITSYDRDLVIAIDEFQRFQKVYPSFITQLQRYWDMKPDNCRIFLIVSGSSIGMIRKIFIEEQAPLFKRADNILTIKPFTVLETFEMLDGMGIKNPEEKLNLYFLFGGTVYYYRLFEKYQCTGFDDALEKLIFSEFAPLKNEVREILIEEFGKEHSTYYEIISAISQGRCSMSEISDMTHVSSSSLSPYFYDLIDLLGVVEHRIPVMDNPEKSKRGRYFLKDNFFRFYGRFIYPMYSRYMAGNYSPMLEKVRKEWQSYTGKIFEDIVHELLVEKMISDYPELGSWWNRKGDEIDILGVDHRGRKSLVIEVKNKELAENEAREILELTLDKTKLVKGISGQKLKVGIVAQKVKGRKNLEDDGFLVWELEELIPLEHHHHHH” belongs “failed”; to “MQGFTAYLVGFAIVAGFAVALGFIFGIFNQIVAQLNTDPNNPMISQEFVDAINLAQSLGGTGLTLAIAALIVGLAMLLIAVIRSYSGV”, “failed”; to “MQGHHAAARALRRQGRLGEAIARYRAALAATPGAAVLQAEMAECLFAAGQAEAAVKALGQAVRLDPDNATHRGNLAMLLARKGDLAGAIDHARAAVRLAPKDGALRLRLARLLIAAGHPREAEAEALDATRRLPREAASWIALAGARLLDQRPNDAEAPSARALALAPNDAEALSLRTDLLLSLGRLAEAEATARLALKRQPTSLAALVALSKAKTFRPDDPDWPALAALLPSLGERSAEEAVKLHFASAKALEDMGRDDEAFAHYQAGNSLKGRGLPDELPALSAMVDSLERWTPKLRPVGEGDPLPVFIVGMPRSGTTLVEQILDRHRAIHGAGEILLFGERVVANGLGGYSADPQGLDPERLAALGADYRDRLRGLAPRAGRIINKTPGNWLHLGLIAAALPGARIIWCRRDPVDCCLSCFRNLFGQGHAWTTDLGRAGRYYRLQERLTGHWQAVLGDERMTAVDYEALVADPEAEARRLVAHLGLEWDEACLDHTRGGRAVTTLSQVQVRQPITDASVGRGRRFQTHLGPLLTALDGR”, “failed”.
Then “MQGQNQQQAYDRGITIFSPDGRLYQVEYAREAVKRGTASIGVRTSDGVVLAVDKRIRSPLMERSSVEKIHKADDHIGIASAGHVADARQLIDFARRQAQVNQLRYGEPVGVETLTKEITDYIQQYTQVGGARPFGVALIIGGIVNGEPRLFETDPSGTPYEWKALAVGADRGDIRDYLEEHYDEGMDLDEGVDLALAALASVNDDELSPEGIGVATVDVETETFGQLTDEEKEAHLAEADLLDTGEDADDEAEDEDATEE”, with “failed”; and “MQGQWGYVAISFIIGIAIAFSSSVIWLTCCLVLNVFFCLYRTPRKTFFYCMIACLSGAMYTTYVQGQNNPLGDSYEATRGVIHNTPLINGDRLSFQVEDQNKNIVQLSYKMKSALEKKQMRQLHAGVSCVFEGERKEPQIARNFHGFNYRDYLYKQNIHFILDATYISECHKTSLSLVQWILLLRQQAISEVAEMFPEQSGAFMNALVFGDRQQMTFEVEEQYQQFGLVHLLAISGSHIVLLMVIVYFILLRSGVTREVATVCLIFCIPLYMILAGASPSVIRASITGVFMLIAFMCSIRLSSLDALSITAICMLIFDPYLVFNIGFQFSFVGSFALLLSTPLLLESGNGVIRNSIYISFISQLVSTPILLYHFGYFSPYSIFLNILYVPFLSLVVLSCSIVILICIPVIPFLAKRLANVLSIGLNLSNDFLSYCENLPFTRLNFGQTSILLVALYCVSIISILMVWERRMAKGILFISAGVFLFISTCHYVYPYFRESGSVTFLDVGQGDAILIRLPYDQEIYLIDTGGTILPNKEEWQRKKHEFSVGNDILIPYLQKEGIKKIDKLIITHGDADHIGAAQQLLSNITVKEVVFGRKEQDAELEKIVKKQALEKKVKIREVREGESWSINGAEFFVLAPTGKESSENNASIVMLAKLGGLTWLFTGDLEEEGEKFLVATYPELRADVLKVAHHGSNTSSTTPFLSVVQPNIAVISVGERNRYGHPHKDVIERFEKRGIEIWRTDKQGAISYVFKGENGTFRSKITYDETHNR”, with “failed”.
For “MQHRQLWYRGGLGLALALVVVGYRGSRTVIRAVPRAQLSVDQKMPSTSSVFSASKLTLQDEANNSAPQVSPEAQESSGPDKQSDLTSGSSTSSSGISSGNSSGSTILENAKNNQTSETATTKAAEMVNGTVKMTLDTNGTLHLSGGSFGASLGSATGSWIVKTLTANGYQPTQVSKIVIDGKITATTMTNYSYLFANLPNVTAIDGLANLNLTGVTDISWLFLNCSQLGALDLNSWDVSSVIRMEGTFQNCAKLVTLNVANWNTDSLQYLIDTFNGDSSLTSLPVGKWNTSKVATMMRTFTDCSSLTSLDIANWDTRVVTNMSAIFRGMSKVKSLPIDKWQTGRVVNMQLVFSGDTSLESINVANWDTSRATALDGTFAKLPNIKSLPLDNWNTSNVQTIRSTFYGDTNLTQLPIDNWNVGKVFDFNSTFSGCASLTTAPVANWNTQSATNLGYTFEGMTSLTSLPVDNWQTGTVTNMAGTFSGVSQLKSLPISKWNTKNVQNMAGTFSKMSSVTALPVDNWQTGNVTTMRGIFTKVSQVKNLPVGKWNTAKVVDMGQVFYGNPQLTSLPIENWNTSSATDFSQLFAEDSGLQTLSLGAWNTTKVTNFESVFQNTSLDKLDLTGWNTNSAQTYTNAFSSKLPPKRLLLGPSFNFFKSESWHLPNPSSEAPYIGKWRSLNNKKVYTSADLMTKYDGKTIVGEFEWATGNTITVKYVDAAGKYLAPDTKISGATGDAYHIKPIEIQGYVPDQPDGVQGNFTDKDETITLMYNPGGLMFVSAPQTINFGQNPITGKSENYGASYDTGLVIQDGRSIGSTWSLNATLSASGFTSKQSGRPLAAVLSYKDQQTGGGSILTPGVARLIVNNHQTVSNQGVNILGQKTALGALSLQVPTDRALTDTYQATVTWTLNQGVPNR”, the protein production entry is recorded as “failed”.
On to “MQIGLEAGLTNQLIDEIDQQPGHLPLLEFALTQLWSKQQNRLLTHQAYQEIGGVEEALANHAEAVYAQLTEADRQRAQQIFIQLVRLGDDTEATRRLTTREEVRLENWDLVTRLASSRLVVTNRNESTAEETVEIVHEALIRSWGRLEQWLIVDGDFLRWREQLRLAIRLWENSGHDQGVLLRGKALIDAQEWQLQRAQELNTNEIRFINKSGELRELEVKQQQRIRKIGISSLVTGLILALGLAGVAWLQGQKARMSETKAISSSAESFLNANLEFDGLIASIRAGRRIKGTDGIDANTRTQITETLQQSINFVREKNRLAEHDGMLESVSFSPDSKFIATASRDKTVKIWSLDGKKQLVVLREEKGEGFNSVAFSPDGTLMATGSWDNTAKIWSREGKRLHTLDGHKEAVLEVAFSPDSQLLATASWDNTVKLWSREGKLLHTLEGHKDKVNSITFSPDGQLIATVGWDNTMKLWNLDGKELRTFRGHQDMIWSVSFSPDGKQIATASGDRTVKLWSLDGKELQTLRGHQNGVNSVTFSPDGKLIATASGDRTVKLWNSKGQELETLYGHTDAVNSVAFSPDGTSIATAGNDKTAKIWKLNSPNSIIVRGHEDEVFDLVFSPNGKYIATASWDKTAKLWSIVGDKLQELRTFNGHQGRVNKLSFSPDGKYIATTSWDKTAKLWNLDGTLQKTLTGHKDTVWSVNFSPDGQLIATASEDKTVKLWNRDGELLKTLPRQSSVVNSAVFSPDGKLIATAGWDKTVKIWSIDGRLQKTLTGHTSGINSVTFSPDGKLIASASWDNTVKIWNLDGKELRTLRGHKNVVHNVTFSPDGKLIATASGDNTVKIWNINGQELRTLRGYKDAVWSLRFSLDGKTLATGSRYDIVVWHLYLDDLDQLLVRGCDWARDYLQNNPNVNPDEKSLCDGIRPIAQQ”, for which the protein production entry is “failed”.
As to “MQINLSDLHLLRPLWLLLIIPGALLPWLWQRRHDLLARLRGTIAPHLLTHLLVTPQDSQRLRPVHLLSALLVLGALAAAGPTWEQDRPDFLHNRAPLIIALDLSPSMNASDLPPSRLEAAKHKLQQLVQQRRGARTGLIAYAGSAHLVLPASDDPALLDSFIQALGSDLIQRPGKDVLGVIRQAQRLLQAEHSPGSLLLISDGADTSQLAAIKQQLAGSPLQVLILAAGSSDGGIIRDASGQPLTDSDGRPQLGRFDSAALKQLAAASDAPLGSLTLNDDDLDWVQLHAQQHFTAASAPDRQLQWKDAGYWLCWPLLLLAFCCVRRGWSLNWLGALLLGLGLSLQAPTARANTLADAFFSADQQGRWAFEHGHYPAAAALFTDPYWKGIAAYKAADFDLALASFARLDSAAAYFYLGNIHVRRFKFDEAIAAYQQALKLQPRFAEASANLALAQALKKDTESAQQNAPEVKPDAIKFDKPAGKGQNKKVETQEAASDELWLQNLSTSPAAFLRQKFSLQDLDNTTPQVTP”, the protein production result is reported as “failed”.
Turning to “MQIVGSVALMLWGIRLVRTGFIRAFGGSLRHYLGLAISGRLTSFGVGLAITVFLQSSTATALIISSFASKGLVQTPAALAVMLGADVGTSISAQILSFNLSWLAYAAILIGFFLHGRGGRFATRQIGRAIVGLGMVLLALSLIRMSSQPLREADGLAYVLSALEGEVLLTLFLMAVLTWLVHSSLAVVLLTASLASAGIVPTGTGLVMILGANIGGTIPPIIATLSTGPQSQHAALGNAGFKLLASLLVLPFLPWVGERLQSFGGDAQVLVNFHLTFNLLVATLFLPWVQTAAALLARVFPDTGAGAVEPVTKYLDKELITSPALALTSATRELYRVNERIEDSLALLSGGIAARDQVDVQGAQENRARVAAMLEEFKFYLTDITREEISESDSAKAMNLLLIATNLGHVSELVTNAVELTASTSHEQIRFSEAGTAELLEMLELIHQGIRLALSAALLGDAKVRKTLQKGRKELERMVDESRQAHFSRLAEGTLSSISTTSLHNELLRDFSRIYYHIYTASKIGGRDSSVMIRG”, the protein production result was “failed”.
